Test [1] concerns the target pyrene-labeled rabbit skeletal muscle F-actin (rabbit) (UniProt P68135). The test is described as follows: stopped-flow fluorescence.
Test [2] has the same target. As to the kind of experiment: other fluorescence titration.
Test [3] addresses RLC-depleted porcine cardiac myosin (pig (endogenous in porcine ventricular muscle)) (UniProt P79293). As to the kind of experiment: reconstitution of RLC-depleted myosin, SDS-PAGE densitometry.
The target is the same in test [4]. As to the kind of experiment: reconstitution of RLC-depleted skinned muscle strips, SDS-PAGE densitometry.

Consider six molecules from PMC6326841.

In test [1], “porcine cardiac myosin reconstituted with human cardiac R58Q RLC (from UniProt P79293 1-1935; P10916 1-166) (complex)” returned a kobs of actin-myosin dissociation at 10 μM MgATP of 7.26 s⁻¹, a kobs of actin-myosin dissociation at 25 μM MgATP of 15.1 s⁻¹, a kobs of actin-myosin dissociation at 40 μM MgATP of 23.6 s⁻¹ and a kobs of actin-myosin dissociation at 80 μM MgATP of 45.6 s⁻¹. In test [1], this molecule displayed a kobs of actin-myosin dissociation at 150 μM MgATP of 69.2 s⁻¹ and a kobs of actin-myosin dissociation at 250 μM MgATP of 107 s⁻¹. The Kd in test [2] amounted to 13.3 nM.
Consider “porcine cardiac myosin reconstituted with human cardiac S15D-R58Q RLC (from UniProt P79293 1-1935; P10916 1-166) (complex)”, for which, in test [1], the kobs of actin-myosin dissociation at 10 μM MgATP was found to be 7.29 s⁻¹, the kobs of actin-myosin dissociation at 25 μM MgATP was 14.7 s⁻¹, the kobs of actin-myosin dissociation at 40 μM MgATP was 25.3 s⁻¹ and the kobs of actin-myosin dissociation at 80 μM MgATP is 41.5 s⁻¹. Moreover, in test [1], the kobs of actin-myosin dissociation at 150 μM MgATP was determined as 74 s⁻¹ and the kobs of actin-myosin dissociation at 250 μM MgATP was found to be 111 s⁻¹. The same molecule displayed a Kd in test [2] of 3.53 nM.
In the case of “porcine cardiac myosin reconstituted with human cardiac WT RLC (from UniProt P79293 1-1935; P10916 1-166) (complex)”, in test [1], the kobs of actin-myosin dissociation at 10 μM MgATP worked out at 8.25 s⁻¹, the kobs of actin-myosin dissociation at 25 μM MgATP amounted to 15.7 s⁻¹, the kobs of actin-myosin dissociation at 40 μM MgATP was determined as 27.3 s⁻¹ and the kobs of actin-myosin dissociation at 80 μM MgATP stood at 48.9 s⁻¹. In test [1], this molecule showed a kobs of actin-myosin dissociation at 150 μM MgATP of 82.2 s⁻¹ and a kobs of actin-myosin dissociation at 250 μM MgATP of 107 s⁻¹. For the same molecule, the Kd in test [2] was found to be 2.13 nM.

B1: human ventricular (cardiac) myosin regulatory light chain, wild type (natural protein)
chain: MAPKKAKKRAGGANSNVFSMFEQTQIQEFKEAFTIMDQNRDGFIDKNDLRDTFAALGRVNVKNEEIDEMIKEAPGPINFTVFLTMFGEKLKGADPEETILNAFKVFDPEGKGVLKADYVREMLTTQAERFSKEEVDQMFAAFPPDVTGNLDYKNLVHIITHGEEKD
For the molecule B1, the % RLC Present in test [3] is 87.2%; in test [4], 61.3%.

B2: human ventricular myosin regulatory light chain S15D-R58Q phosphomimic double mutant (natural protein)
chain: MAPKKAKKRAGGANDNVFSMFEQTQIQEFKEAFTIMDQNRDGFIDKNDLRDTFAALGQVNVKNEEIDEMIKEAPGPINFTVFLTMFGEKLKGADPEETILNAFKVFDPEGKGVLKADYVREMLTTQAERFSKEEVDQMFAAFPPDVTGNLDYKNLVHIITHGEEKD
Take B2: the % RLC Present came out at 86.9% in test [3] and 64.5% in test [4].

B3: human ventricular myosin regulatory light chain R58Q mutant (natural protein)
chain: MAPKKAKKRAGGANSNVFSMFEQTQIQEFKEAFTIMDQNRDGFIDKNDLRDTFAALGQVNVKNEEIDEMIKEAPGPINFTVFLTMFGEKLKGADPEETILNAFKVFDPEGKGVLKADYVREMLTTQAERFSKEEVDQMFAAFPPDVTGNLDYKNLVHIITHGEEKD
For B3, the % RLC Present is 75.7% in test [3] and 54% in test [4].
